B1: TNF 8A (ssRNA)
RNA: GGGAGCUCAGAAUAAACGCUCAACAGUGGAGGCUGUCCAAACCCACCCACCCCUUCGACAUGAGGCCCGGAUCCGGC
B2: TNF 19C (ssRNA)
RNA: GGGAGCUCAGAAUAAACGCUCAAUGUCGAUCGUGUCAAGGUCCGUCCUACUUCUUCGACAUGAGGCCCGGAUCCGGC
B3: TNF 12C (ssRNA)
RNA: GGGAGCUCAGAAUAAACGCUCAAGUCCGCAUGAUGCUUCGAACAGCAUACAACUUCGACAUGAGGCCCGGAUCCGGC
B4: TNF 9C (ssRNA)
RNA: GGGAGCUCAGAAUAAACGCUCAAAUGGUGGAGGCCAUCUCAAACCCACGACACUUCGACAUGAGGCCCGGAUCCGGC
B5: TNF 7C (ssRNA)
RNA: GGGAGCUCAGAAUAAACGCUCAACAGGUGGCACCGCCCUUCCAACACGGUGCGUUCGACAUGAGGCCCGGAUCCGGC
B6: TNF 11C (ssRNA)
RNA: GGGAGCUCAGAAUAAACGCUCAAUGAGGCGCGCCACAGGAUGGCCCUCAACCCUUCGACAUGAGGCCCGGAUCCGGC
B7: TNF 3A (ssRNA)
RNA: GGGAGCUCAGAAUAAACGCUCAAGAUCGACGCAUCGAGUCGCCUCAUCGCUCCUUCGACAUGAGGCCCGGAUCCGGC
B8: TNF 15C (ssRNA)
RNA: GGGAGCUCAGAAUAAACGCUCAACUAGUUCAACCGUCCCUUCUAACAACCGUCUUCGACAUGAGGCCCGGAUCCGGC
B9: TNF 10C (ssRNA)
RNA: GGGAGCUCAGAAUAAACGCUCAACGCCGAGACCCACCUCAUAACACCGCUACCUUCGACAUGAGGCCCGGAUCCGGC
B10: TNF 8C 2'F (ssRNA)
RNA: GGGAGCUCAGAAUAAACGCUCAAGUCCACACUUUGCCGAGCGUCCUAGUGUUCGACAUGAGGCCCGGAUCCGGC
modifications: 2'-F all C and U
B11: TNF 25A 2'F (ssRNA)
RNA: GGGAGCUCAGAAUAAACGCUCAAGGCCGCAUGCCCCUCCUAACAGCAUGCAACUUCGACAUGAGGCCCGGAUCCGGC
modifications: 2'-F all C and U
B12: TNF 9C 2'F (ssRNA)
RNA: GGGAGCUCAGAAUAAACGCUCAAAUGGUGGAGGCCAUCUCAAACCCACGACACUUCGACAUGAGGCCCGGAUCCGGC
modifications: 2'-F all C and U
B13: TNF 4A 2'F (ssRNA)
RNA: GGGAGCUCAGAAUAAACGCUCAACGCACUCGGACGGAAUCUCCGUAGGACACGUUCGACAUGAGGCCCGGAUCCGGC
modifications: 2'-F all C and U
B14: TNF 7C 2'F (ssRNA)
RNA: GGGAGCUCAGAAUAAACGCUCAACAGGUGGCACCGCCCUUCCAACACGGUGCGUUCGACAUGAGGCCCGGAUCCGGC
modifications: 2'-F all C and U
B15: TNF 3A 2'F (ssRNA)
RNA: GGGAGCUCAGAAUAAACGCUCAAGAUCGACGCAUCGAGUCGCCUCAUCGCUCCUUCGACAUGAGGCCCGGAUCCGGC
modifications: 2'-F all C and U
B16: IL-4 2'F-12 (ssRNA)
RNA: GGGAGACAAGAAUAAACGCUCAAGUCUGACUAUUGGGGCGCCACAAUAUCAACGGCUGUACUUCGACAGGAGGCUCACAACAGGC
modifications: 2'-F all C and U
B17: IL-4 2'F-21 (ssRNA)
RNA: GGGAGACAAGAAUAAACGCUCAAAGGAGCGCCAUGAAGCAAAGGGAGGAUUGUGGUGGAAGGCUUCGACAGGAGGCUCACAACAGGC
modifications: 2'-F all C and U
B18: IL-4 2'F/NH2-18 (ssRNA)
RNA: GGGAGACAAGAAUAAACGCUCAACCGCCUGCGAUAGUUAGACCGUUGAGCUGAGAGCAACACUUUCGACAGGAGGCUCACAACAGGC
modifications: 2'-F all C, 2'-NH2 all U
B19: IL-4 2'F-18 (ssRNA)
RNA: GGGAGACAAGAAUAAACGCUCAAGCUGCCCAAGGAAUUUAACUUGGACCGCGAUCUGGAGUCUUCGACAGGAGGCUCACAACAGGC
modifications: 2'-F all C and U
B20: IL-4 2'F/NH2-28 (ssRNA)
RNA: GGGAGACAAGAAUAAACGCUCAAGAUCCUGCGACGCCAGGGGUGGAUAGGGGGAAGGGAGCGGUUCGACAGGAGGCUCACAACAGGC
modifications: 2'-F all C, 2'-NH2 all U
B21: IL-4 2'NH2-29 (ssRNA)
RNA: GGGAGACAAGAAUAAACGCUCAAGAGCUGGUGAGCCACGUAUACGGCCUUAGGGGCUUGGGCGUUCGACAGGAGGCUCACAACAGGC
modifications: 2'-NH2 all C and U
B22: IL-4 2'F/NH2-16 (ssRNA)
RNA: GGGAGACAAGAAUAAACGCUCAAGGUACGACCAAGGAAUGUGGGUGGAAGAGGGCGCCGUACCUUCGACAGGAGGCUCACAACAGGC
modifications: 2'-F C, 2'-NH2 U
B23: IL-4 2'F/NH2-11 (ssRNA)
RNA: GGGAGACAAGAAUAAACGCUCAAGGUACGACCAAGGAAUGUGGGUGGAAGAGGGUGCCGUACCUUCGACAGGAGGCUCACAACAGGC
modifications: 2'-F C, 2'-NH2 U
B24: IL-4 2'F/NH2-2 (ssRNA)
RNA: GGGAGACAAGAAUAAACGCUCAAGACGAACGACCAAGGGACGGGUGGGCAAAUAGGGAUGCCGUUCGACAGGAGGCUCACAACAGGC
modifications: 2'-F C, 2'-NH2 U
B25: IL-4 2'F/NH2-43 (ssRNA)
RNA: GGGAGACAAGAAUAAACGCUCAACAACGCUGACCAUGGGAGGAAUGUGGGAAGGGCGCCAGCGUUCGACAGGAGGCUCACAACAGGC
modifications: 2'-F C, 2'-NH2 U
B26: IL-4 2'F/NH2-14 (ssRNA)
RNA: GGGAGACAAGAAUAAACGCUCAACAGCCAAGGGUUGGAUAGGGGGUAGGGAGCCGUAGCAGCGUUCGACAGGAGGCUCACAACAGGC
modifications: 2'-F C, 2'-NH2 U
B27: IL-10 ligand 2 (ssRNA)
RNA: GGGAGACAAGAAUAAACGCUCAAAUCUCUACUGAGCCUGGAUUCGCCAGAAGUUUUAUCACAGUUUCGACAGGAGGCUCACAACAGGC
modifications: 2'-F C and U
B28: IL-10 ligand 3 (ssRNA)
RNA: GGGAGACAAGAAUAAACGCUCAACUGAGAUCUCUAAGAGCCUGGACUCAGCUACGAUUGAGCGUUUAUUCUUGUUCGACAGGAGGCUCACAACAGGC
modifications: 2'-F C and U
B29: IL-10 ligand 59 (ssRNA)
RNA: GGGAGACAAGAAUAAACGCUCAACGUAAAAGUUAUCGAAUCUCUGUGAGCCUGGAUCGAUUACUUCGACAGGAGGCUCACAACAGGC
modifications: 2'-F C and U
B30: TNF 15A (ssRNA)
RNA: GGGAGCUCAGAAUAAACGCUCAACGUCGAUCGCGUGCUGUAGCCUCAGGCACCUUCGACAUGAGGCCCGGAUCCGGC
B31: TNF 19A (ssRNA)
RNA: GGGAGCUCAGAAUAAACGCUCAAGUCGAUGCGCAGUCCGCCUCAGCUGCACUGUUCGACAUGAGGCCCGGAUCCGGC
B32: TNF 6C (ssRNA)
RNA: GGGAGCUCAGAAUAAACGCUCAAUGUCGCACGUGUCCCGGCCCGCCCUACCCCUUCGACAUGAGGCCCGGAUCCGGC
B33: TNF 21A (ssRNA)
RNA: GGGAGCUCAGAAUAAACGCUCAACGUCUAGGAACUGCGUCGCCUCAACAGCGCUUCGACAUGAGGCCCGGAUCCGGC
B34: TNF 27A (ssRNA)
RNA: GGGAGCUCAGAAUAAACGCUCAAGUCGCUCGAUCGUUUCAUGUCCGUUCGACCUUCGACAUGAGGCCCGGAUCCGGC
B35: TNF 17C (ssRNA)
RNA: GGGAGCUCAGAAUAAACGCUCAAGAUCGAAGUUGUCGUCCGCCUCAGCGACUCUUCGACAUGAGGCCCGGAUCCGGC
B36: TNF 16A (ssRNA)
RNA: GGGAGCUCAGAAUAAACGCUCAAGGUGGAAGGCCUUUGAAGCCCGUACAUCUCCUUCGACAUGAGGCCCGGAUCCGGC
B37: TNF 22A (ssRNA)
RNA: GGGAGCUCAGAAUAAACGCUCAAGUCGGAUGGUUUUGCGCGUUUCCCGUUCGACAUGAGGCCCGGAUCCGGC
B38: TNF 26A (ssRNA)
RNA: GGGAGCUCAGAAUAAACGCUCAACCCUCGUGCGUGCGCUUGGAGCGUGGCGCAUUCGACAUGAGGCCCGGAUCCGGC
B39: TNF 5C (ssRNA)
RNA: GGGAGCUCAGAAUAAACGCUCAACAGUCACGAACGUGCGCCGGAAGAACGCUCUUCGACAUGAGGCCCGGAUCCGGC
B40: TNF 17A (ssRNA)
RNA: GGGAGCUCAGAAUAAACGCUCAAGGUCGAACUAGCGCUGGAGCGUGCGUUGGUUUCGACAUGAGGCCCGGAUCCGGC

What follows are binders tested against T1, TNF-alpha (Homo sapiens, UniProt P01375 P01375:77-233) (assay: filter; class I). Conditions: tags: Genzyme or R&D Systems; chain copies: 3 inferred.
T1 sequence (P01375 77-233, one chain of several): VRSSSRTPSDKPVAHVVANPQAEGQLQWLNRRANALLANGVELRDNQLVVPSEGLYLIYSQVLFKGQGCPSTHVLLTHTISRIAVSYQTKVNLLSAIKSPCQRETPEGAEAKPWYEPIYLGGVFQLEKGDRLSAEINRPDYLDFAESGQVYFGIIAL
B1 showed a Kd of 785 nM.
B2 was tested, and the Kd was 83 nM.
For B3, the Kd was 690 nM.
B4 was tested, and the Kd was 120 nM.
B5 gave a Kd of 297 nM.
In the case of B6, the Kd is reported as 140 nM.
B7 gave a Kd of 135 nM.
For B8, the Kd was 124 nM.
Work on B9 yielded a Kd of 500 nM.

What follows are binders tested against T1, TNF-alpha (assay: filter; 2'F version). Conditions: tags: Genzyme or R&D Systems; chain copies: 3 inferred.
In the case of B10, the Kd is reported as 503 nM.
B11 was tested, and the Kd was 445 nM.
Binder B12 has a Kd of 400 nM.
In the case of B13, the Kd is reported as 178 nM.
For B14, the Kd was 442 nM.
For B15, the Kd was 623 nM.

Each binder was assayed against T2, IL-4 (Homo sapiens, UniProt P05112 P05112:25-153) (assay: filter; full-length). Conditions: tags: R&D Systems.
T2 sequence (P05112 25-153, one chain of several): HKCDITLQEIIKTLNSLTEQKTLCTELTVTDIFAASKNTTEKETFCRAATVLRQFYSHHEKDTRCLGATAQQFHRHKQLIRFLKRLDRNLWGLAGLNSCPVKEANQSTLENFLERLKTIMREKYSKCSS
With B16 the Kd was 30 nM.
B17 showed a Kd of 11 nM.
With B18 the Kd was 30 nM.
B19 was tested, and the Kd was 43 nM.
B20 was tested, and the Kd was 8.7 nM.
In the case of B21, the Kd is reported as 8.3 nM.

Each binder was assayed against T2, IL-4 (assay: filter; group 2 stated to bind IL-4). Conditions: tags: R&D Systems.
B22: binds.
B23: binds.
B24: binds.
B25: binds.
B26: binds.

The binders below were run against IL-10 (Homo sapiens, UniProt P22301 P22301:19-178) (assay: filter; group statement, at 250 nM IL-10). Conditions: tags: Bachem or R&D Systems; chain copies: 2.
Chain of IL-10 (P22301 19-178, one chain of several): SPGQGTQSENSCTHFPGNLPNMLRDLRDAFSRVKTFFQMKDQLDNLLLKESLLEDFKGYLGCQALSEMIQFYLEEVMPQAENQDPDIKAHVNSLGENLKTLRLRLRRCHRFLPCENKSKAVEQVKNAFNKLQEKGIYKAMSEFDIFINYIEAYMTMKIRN
B27: binds.
B28: binds.
B29: binds.

Each binder was assayed against T1, TNF-alpha (assay: filter; no value shown, Kd above 1 uM per footnote; DPBS). Conditions: tags: Genzyme or R&D Systems; chain copies: 3.
For B30, the Kd was > 1000 nM.
With B31 the Kd was > 1000 nM.
In the case of B32, the Kd is reported as > 1000 nM.
For B33, the Kd was > 1000 nM.
B34 was tested, and the Kd was > 1000 nM.
With B35 the Kd was > 1000 nM.
In the case of B36, the Kd is reported as > 1000 nM.
With B37 the Kd was > 1000 nM.
B38 was tested, and the Kd was > 1000 nM.
For B39, the Kd was > 1000 nM.
B40 was tested, and the Kd was > 1000 nM.

From US5972599, “High affinity nucleic acid ligands of cytokines” (NeXstar Pharmaceuticals, Inc.)
